Reference: publication PMC5095173, “Disulfide-activated protein kinase G Iα regulates cardiac diastolic relaxation and fine-tunes the Frank–Starling response” (Nature Communications, 2016)
Where no end group is shown, it is not given here.

B1: oxidized (WT) protein kinase G Iα, Cys42 disulfide dimer (enzyme, human, UniProt Q13976 1-671, looked up)
chain: MSELEEDFAKILMLKEERIKELEKRLSEKEEEIQELKRKLHKCQSVLPVPSTHIGPRTTRAQGISAEPQTYRSFHDLRQAFRKFTKSERSKDLIKEAILDNDFMKNLELSQIQEIVDCMYPVEYGKDSCIIKEGDVGSLVYVMEDGKVEVTKEGVKLCTMGPGKVFGELAILYNCTRTATVKTLVNVKLWAIDRQCFQTIMMRTGLIKHTEYMEFLKSVPTFQSLPEEILSKLADVLEETHYENGEYIIRQGARGDTFFIISKGTVNVTREDSPSEDPVFLRTLGKGDWFGEKALQGEDVRTANVIAAEAVTCLVIDRDSFKHLIGGLDDVSNKAYEDAEAKAKYEAEAAFFANLKLSDFNIIDTLGVGGFGRVELVQLKSEESKTFAMKILKKRHIVDTRQQEHIRSEKQIMQGAHSDFIVRLYRTFKDSKYLYMLMEACLGGELWTILRDRGSFEDSTTRFYTACVVEAFAYLHSKGIIYRDLKPENLILDHRGYAKLVDFGFAKKIGFGKKTWTFCGTPEYVAPEIILNKGHDISADYWSLGILMYELLTGSPPFSGPDPMKTYNIILRGIDMIEFPKKIAKNAANLIKKLCRDNPSERLGNLKNGVKDIQKHKWFEGFNWEGLRKGTLTPPIIPSVASPTDTSNFDSFPEDNDEPPPDDNSGWDIDF
modifications: intermolecular disulfide bond at Cys42 between the two subunits
notes: protein kinase G Iα (cGMP-dependent protein kinase 1, alpha isoform), human, untagged WT construct; also called PKGIα; source: FreeStyle 293-F cells, transfected, purified (8-AEA-cAMP agarose, size exclusion chromatography); incubated with 10 mM lipoic acid to obtain the disulfide dimer

Assays:
[1] = target: B1; test: ITC; PLN (1–23) (700 μM) titrated into the cell containing WT disulfide PKGIα or the C42S mutant (70 μM); 25 °C; 50 mM sodium phosphate buffer pH 7.4, 100 mM NaCl; no cyclic nucleotide; settings: both partners purified
[2] = target: the molecule itself; test: cross-linking; intermolecular Cys42 disulfide of purified recombinant PKGIα (lipoic acid or air oxidation) seen as dimer by SDS-PAGE

Row | Kd [1] [µM] | stoichiometry N [1] | Binder | stoichiometry N [2]
1 | ~7 | 1 PLN peptide per PKGIα disulfide dimer | Ac-MEKVQYLTRSAIRRASTIEMPQQ (peptide, UniProt P26678 1-23, looked up, cardiac phospholamban, human, residues 1-23 (N-terminal cytoplasmic domain); also called PLN_(1–23); PLN (1–23); source: synthetic peptide; bought: PeptideSynthetics (Peptide Protein Research Ltd, UK)) | 
2 |  |  | B1 | 2
